Source: publication PMC11387133

Target: microtubules of purified bovine brain tubulin (bovine) (UniProt Q6B856)
Experiment: optical trap rupture force assay; kinetochores held on beads by α-penta-His antibody; dynamic microtubules grown from coverslip-anchored GMPCPP seeds; force ramp 0.25 pN/s; 23 °C; BRB80

median rupture force [pN] | Substance
7.2 | purified native S. cerevisiae kinetochores (from UniProt P40568 1-576) (complex)
7.5 | purified native K. marxianus kinetochores (from UniProt A0ABX6F0Z3 1-547; A0ABX6F2N8 1-203; A0ABX6ES48 1-179; A0ABX6ET36 1-377) (complex)
